Laboratory results reported in patent publication US7972827B2, “Photoswitchable method for the ordered attachment of proteins to surfaces” (Lawrence Livermore National Security, LLC, priority 2003, dated 2011).

Target: T1, MBP-N-intein fusion protein (Synechocystis sp., UniProt P74750)
T1 construct: made in house; host or cells: E. coli BL21(DE3)pLysS+
Test: in solution trans-splicing activity of photocaged C-intein polypeptides with MBP-N-intein fusion protein
Format: biochemical, Synechocystis sp. PCC6803
Conditions: for trans-splicing activity relative to the non-photocaged C-intein polypeptide: % of the trans-splicing activity of the non-photocaged C-intein polypeptide, SDS-PAGE analysis
Method: In-vitro protein trans-splicing was characterized as follows. Each purified C-intein polypeptide was combined with MBP-N-intein fusion protein in splicing buffer (0.5 mM EDTA, 1 mM TCEP, 50 mM sodium phosphate, 150-500 mM NaCl at pH 7). The concentration of the two proteins was typically in the range 0.1-200 μM. The mixture was allowed to react at 4° C. for 12-16 h. The reaction was then quenched by dilution into SDS-PAGE loading buffer containing 20% v/v 2-mercaptoethanol before the SDS-PAGE analysis. The spliced product was purified using HPLC and characterized by ES-MS as the trans-spliced product. The expected mass (average isotopic composition)=43988.0 Da; measured mass=43986±10 Da.
The in solution trans-splicing activity of each photocaged C-intein polypeptide was assayed using the MBP-N-intein fusion protein expressed as described above.

Row | Substance | trans-splicing activity relative to the non-photocaged C-intein polypeptide | ability to promote trans-splicing (in words) (with MBP-N-intein fusion protein, data not shown)
1 | C-intein polypeptide with caged Gly6: DnaE C-intein polypeptide SEQ ID NO:6 with PEGylated thiol linker, photocaged (nitroveratryl) at Gly6 | about 30% | –
2 | C-intein polypeptide with caged Gly11: DnaE C-intein polypeptide SEQ ID NO:6 with PEGylated thiol linker, photocaged (nitroveratryl) at Gly11 | around 60% | –
3 | C-intein polypeptide with caged Gly19: DnaE C-intein polypeptide SEQ ID NO:6 with PEGylated thiol linker, photocaged (nitroveratryl) at Gly19 | about 30% | –
4 | C-intein polypeptide with two caged residues, Gly19 and Gly31: DnaE C-intein polypeptide SEQ ID NO:6 with PEGylated thiol linker, photocaged (nitroveratryl) at both Gly19 and Gly31 | – | completely prevent trans-splicing activity
